Laboratory results as given in paper PMC8805214, “Crystal structure of betaine aldehyde dehydrogenase from Burkholderia pseudomallei” (Acta Crystallographica. Section F, Structural Biology …, 2022).

Biological target: the molecule itself
Test: crystal structure

B1: betaine aldehyde dehydrogenase from Burkholderia pseudomallei (enzyme)
chain: MSVYGLQRLYIAGAHADATSGKTFDTFDPATGELLARVQQASADDVDRAVASAREGQREWAAMTAMQRSRILRRAVELLRERNDALAELEMRDTGKPIAETRAVDIVTGADVIEYYAGLATAIEGLQVPLRPESFVYTRREPLGVCAGIGAWNYPIQIACWKSAPALAAGNAMIFKPSEVTPLSALKLAEIYTEAGVPAGVFNVVQGDGSVGALLSAHPGIAKVSFTGGVETGKKVMSLAGASSLKEVTMELGGKSPLIVFDDADLDRAADIAVTANFFSAGQVCTNGTRVFVQQAVKDAFVERVLARVARIRVGKPSDSDTNFGPLASAAQLDKVLGYIDSGKAEGAKLLAGGARLVNDHFASGQYVAPTVFGDCRDDMRIVREEIFGPVMSILSFETEDEAIARANATDYGLAAGVVTENLSRAHRAIHRLEAGICWINTWGESPAEMPVGGYKQSGVGRENGITTLEHYTRIKSVQVELGRYQPVF
notes: also called BpBADH; BpBADH-His; not shown: His6, C-terminal, kept
  binding result: binds
